Each block holds one binder with its values, some of them ahead of it.
Legend:
[1] = target: T1, EZH2 SRM-SANT1 (residues 141–251) (human, UniProt Q15910 141-251); assay: pull-down; 1 μg purified untagged SRM-SANT1 with 1 μg biotin-tagged H4 peptide overnight at 4 °C in 150 mM NaCl, 50 mM Tris (pH 6.5), 3 mM DTT; captured on streptavidin sepharose, four washes, coomassie staining; triplicates quantified with ImageJ; conditions: both partners purified
T1 construct: Enhancer of Zeste Homologue 2 (EZH2), human, residues 141-251: stimulation response motif (SRM), linker and SANT1 domain; cDNA from OpenBiosystems; Uniformly 15N-enriched for the NMR titrations; untagged in the pull-down; also called EZH2 SANT1; source: E. coli Rosetta2 (DE3) pLysS, purified (glutathione agarose, PreScission cleavage, ion exchange, size exclusion); not shown: GST, N-terminal, …
T1 sequence (Q15910 141-251): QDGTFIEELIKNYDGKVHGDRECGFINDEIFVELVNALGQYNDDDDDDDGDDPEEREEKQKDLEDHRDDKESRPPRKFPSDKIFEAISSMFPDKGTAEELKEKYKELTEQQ

[2] = target: T1, EZH2 SRM-SANT1 (residues 141–251); assay: NMR titration; 15N-HSQC spectra of 0.05–0.10 mM 15N-EZH2 SRM-SANT1 with increasing concentrations of histone peptide; 25 °C; Kd from normalized CSPs, one-site model accounting for ligand depletion, averaged over significantly perturbed residues; conditions: both partners purified

binding result [1]: binds
B1: biotinylated unmodified histone H4 peptide (residues 11–27) (peptide, UniProt P62805 12-28, looked up)
peptide: GKGGAKRHRKVLRDNIQ
modifications: biotin (end not stated)
notes: histone H4, residues 11-27; also called unmodified H4 (11–27); source: synthetic peptide, bought: EpiCypher (SKU:12-0035)

Kd [2]: 700 ± 200 µM
B2: unmodified histone H4 peptide (residues 11–21) (peptide, UniProt P62805 12-22, looked up)
peptide: GKGGAKRHRKV
notes: histone H4, residues 11-21 (holds the basic patch); also called H4(11–21); source: synthetic peptide, custom synthesized by GenScript

fold weaker than the H4 tail [2]: ~20 fold
B3: unmodified histone H2B peptide (residues 1–11) (peptide, UniProt P62807 2-12, looked up)
peptide: PEPAKSAPAPK
notes: histone H2B N-terminal tail, residues 1-11; also called H2B (1–11); H2B tail; source: synthetic peptide, bought: AnaSpec (65442-1)
